Measured values: patent US20120316071A1 (published 2012)
Substitutions are numbered along the chain they refer to. Numbers in names are those of the source. One block for each binder: values may come before it.

Experiments:
[1] = molecular target: T1, rHuman P-Cadherin/Fc Chimera, CF (R&D Systems Cat#861-PC) (human, UniProt P22223 108-654); test: MSD ECL multispot assay, antigen spotted on plate, Fab in solution; blank spot of this row 277
T1 construct: Bought recombinant protein; not shown: Fc of the bought chimera

[2] = molecular target: T2, Recombinant Human DLL4 (R&D Systems Cat#1506-D4/CF) (human, UniProt Q9NR61 27-524); test: as above
T2 construct: Bought recombinant protein; also called delta-like protein 4; rHuman DLL4

[3] = molecular target: T3, rHuman EGF R/Fc Chimera, CF (R&D Systems Cat#344-ER) (human, UniProt P00533 25-645); test: as above
T3 construct: Bought recombinant protein; not shown: Fc of the bought chimera

[4] = molecular target: T4, rHuman ErbB2/Fc Chimera, CF (R&D Systems Cat#1129-ER) (human, UniProt P04626 23-652); test: as above
T4 construct: Bought recombinant protein; not shown: Fc of the bought chimera

[5] = molecular target: T5, rHuman HGF R/c-MET/Fc Chimera, CF (R&D Systems Cat#358-MT/CF) (human, UniProt P08581 25-932); test: as above
T5 construct: Bought recombinant protein; also called HGF R/Fc; not shown: Fc of the bought chimera

[6] = molecular target: T6, rHuman IGF-1 sR (insulin-like growth factor-1 soluble receptor), CF (R&D Systems Cat#391-GR) (human, UniProt P08069 31-932); test: as above
T6 construct: Bought recombinant soluble receptor

[7] = molecular target: T1, rHuman P-Cadherin/Fc Chimera, CF (R&D …); test: MSD ECL multispot assay, antigen spotted on plate, Fab in solution; blank spot of this row 274
[8] = molecular target: T2, Recombinant Human DLL4 (R&D Systems …); test: as above
[9] = molecular target: T3, rHuman EGF R/Fc Chimera, CF (R&D …); test: as above
[10] = molecular target: T4, rHuman ErbB2/Fc Chimera, CF (R&D …); test: as above
[11] = molecular target: T5, rHuman HGF R/c-MET/Fc Chimera, CF (R&D …); test: as above
[12] = molecular target: T6, rHuman IGF-1 sR (insulin-like growth …); test: as above
[13] = molecular target: T1, rHuman P-Cadherin/Fc Chimera, CF (R&D …); test: MSD ECL multispot assay, antigen spotted on plate, Fab in solution; blank spot of this row 282
[14] = molecular target: T2, Recombinant Human DLL4 (R&D Systems …); test: as above
[15] = molecular target: T3, rHuman EGF R/Fc Chimera, CF (R&D …); test: as above
[16] = molecular target: T4, rHuman ErbB2/Fc Chimera, CF (R&D …); test: as above
[17] = molecular target: T5, rHuman HGF R/c-MET/Fc Chimera, CF (R&D …); test: as above
[18] = molecular target: T6, rHuman IGF-1 sR (insulin-like growth …); test: as above
[19] = molecular target: T1, rHuman P-Cadherin/Fc Chimera, CF (R&D …); test: MSD ECL multispot assay, antigen spotted on plate, Fab in solution; blank spot of this row 278
[20] = molecular target: T2, Recombinant Human DLL4 (R&D Systems …); test: as above
[21] = molecular target: T7, rHuman Erythropoietin R/Fc Chimera, CF (R&D Systems Cat#963-ER) (human, UniProt P19235 25-250); test: as above
T7 construct: Bought recombinant protein; also called EPO R; EPO R/Fc; not shown: Fc of the bought chimera
T7 sequence (looked up): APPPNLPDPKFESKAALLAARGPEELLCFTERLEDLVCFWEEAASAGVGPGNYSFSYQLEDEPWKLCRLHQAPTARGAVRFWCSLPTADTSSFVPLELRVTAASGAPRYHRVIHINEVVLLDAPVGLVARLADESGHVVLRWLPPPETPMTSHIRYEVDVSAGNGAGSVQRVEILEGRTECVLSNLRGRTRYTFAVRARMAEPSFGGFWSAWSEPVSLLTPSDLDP

[22] = molecular target: T3, rHuman EGF R/Fc Chimera, CF (R&D …); test: as above
[23] = molecular target: T4, rHuman ErbB2/Fc Chimera, CF (R&D …); test: as above
[24] = molecular target: T5, rHuman HGF R/c-MET/Fc Chimera, CF (R&D …); test: as above
[25] = molecular target: T8, rHuman Notch-1/Fc Chimera, CF (R&D Systems Cat#3647-TK) (human, UniProt P46531 19-526); test: as above
T8 construct: Bought recombinant protein; not shown: Fc of the bought chimera

[26] = molecular target: T9, rHuman CD44/Fc Chimera, CF (R&D Systems Cat#3660-CD) (human, UniProt P16070 21-220); test: as above
T9 construct: Bought recombinant protein; not shown: Fc of the bought chimera

[27] = molecular target: T6, rHuman IGF-1 sR (insulin-like growth …); test: as above
[28] = molecular target: T1, rHuman P-Cadherin/Fc Chimera, CF (R&D …); test: MSD ECL multispot assay, antigen spotted on plate, Fab in solution; blank spot of this row 317
[29] = molecular target: T7, rHuman Erythropoietin R/Fc Chimera, CF …; test: as above
[30] = molecular target: T3, rHuman EGF R/Fc Chimera, CF (R&D …); test: as above
[31] = molecular target: T4, rHuman ErbB2/Fc Chimera, CF (R&D …); test: as above
[32] = molecular target: T5, rHuman HGF R/c-MET/Fc Chimera, CF (R&D …); test: as above
[33] = molecular target: T8, rHuman Notch-1/Fc Chimera, CF (R&D …); test: as above
[34] = molecular target: T9, rHuman CD44/Fc Chimera, CF (R&D Systems …); test: as above
[35] = molecular target: T6, rHuman IGF-1 sR (insulin-like growth …); test: as above

T5 sequence (P08581 25-932, change not shown): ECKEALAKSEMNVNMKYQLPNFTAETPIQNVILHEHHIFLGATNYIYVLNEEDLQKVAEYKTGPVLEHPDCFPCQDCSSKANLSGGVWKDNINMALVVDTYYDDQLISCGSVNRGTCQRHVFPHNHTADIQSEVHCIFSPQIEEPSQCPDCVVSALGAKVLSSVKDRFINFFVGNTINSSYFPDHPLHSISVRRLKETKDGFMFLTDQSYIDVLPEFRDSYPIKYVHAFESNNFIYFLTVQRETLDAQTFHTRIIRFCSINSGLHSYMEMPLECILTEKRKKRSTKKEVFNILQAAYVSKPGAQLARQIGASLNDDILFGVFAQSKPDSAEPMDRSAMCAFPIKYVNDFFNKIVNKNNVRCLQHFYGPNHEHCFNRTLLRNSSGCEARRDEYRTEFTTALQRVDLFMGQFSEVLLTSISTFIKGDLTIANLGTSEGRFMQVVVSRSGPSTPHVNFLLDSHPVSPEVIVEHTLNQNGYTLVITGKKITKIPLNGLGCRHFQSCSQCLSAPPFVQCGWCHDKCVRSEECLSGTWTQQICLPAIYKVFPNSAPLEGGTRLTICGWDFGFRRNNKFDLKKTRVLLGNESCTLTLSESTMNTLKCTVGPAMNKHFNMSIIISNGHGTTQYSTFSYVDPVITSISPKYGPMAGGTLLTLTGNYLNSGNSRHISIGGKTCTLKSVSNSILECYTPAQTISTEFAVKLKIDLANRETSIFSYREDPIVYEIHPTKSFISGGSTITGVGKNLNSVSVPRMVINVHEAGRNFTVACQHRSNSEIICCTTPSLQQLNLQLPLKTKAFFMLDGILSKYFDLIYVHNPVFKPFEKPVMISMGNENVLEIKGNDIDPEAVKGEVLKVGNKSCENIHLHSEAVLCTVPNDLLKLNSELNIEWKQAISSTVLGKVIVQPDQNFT

ECL signal [1]: 299 | ECL signal [2]: 165000 | ECL signal [3]: 307 | ECL signal [4]: 311 | ECL signal [5]: 267 | ECL signal [6]: 221 | ECL signal [7]: 283 | ECL signal [8]: 164000 | ECL signal [9]: 266 | ECL signal [10]: 236 | ECL signal [11]: 339 | ECL signal [12]: 305 | ECL signal [13]: 302 | ECL signal [14]: 165000 | ECL signal [15]: 290 | ECL signal [16]: 259 | ECL signal [17]: 321 | ECL signal [18]: 249
B1: Fab VH1-46_IGHD6-6*01_IGHJ1*01 S102A/S103P/S104F/H111F (APFF) & L6_IGKJ1*01 (Fab, V domains shown)
VH: QVQLVQSGAEVKKPGASVKVSCKASGYTFTSYYMHWVRQAPGQGLEWMGIINPSGGSTSYAQKFQGRVTMTRDTSTSTVYMELSSLRSEDTAVYYCAREEYAPFSAEYFQFWGQGTLVTVSS
VL: not shown
notes: Fab; also called APFF / parent; H:APFF & L:wt

ECL signal [19]: 387 | ECL signal [20]: 54100 | ECL signal [21]: 424 | ECL signal [22]: 295 | ECL signal [23]: 237 | ECL signal [24]: 290 | ECL signal [25]: 231 | ECL signal [26]: 290 | ECL signal [27]: 308
B2: Fab VH1-46_IGHD6-6*01_IGHJ1*01 S102A/S103P/S104F/H111F (APFF) & L6_IGKJ1*01 S92T (Fab, V domains shown)
VH: B1 VH
VL: EIVLTQSPATLSLSPGERATLSCRASQSVSSYLAWYQQKPGQAPRLLIYDASNRATGIPARFSGSGSGTDFTLTISSLEPEDFAVYYCQQRTNWPPWTFGQGTKVEIKR
notes: Fab; also called APFF / S92T

ECL signal [28]: 373 | ECL signal [29]: 371 | ECL signal [30]: 319 | ECL signal [31]: 188 | ECL signal [32]: 230 | ECL signal [33]: 262 | ECL signal [34]: 248 | ECL signal [35]: 244
B3: Fab VH1-46_IGHD6-6*01_IGHJ1*01 S102A/S103P/S104F/H111F (APFF) & L6_IGKJ1*01 S92V (Fab, V domains shown)
VH: B1 VH
VL: B2 VL with T92V
notes: Fab; also called APFF / S92V
